In the supplement of paper PMC12042874:
± gives the uncertainty stated by the source.

Assay: amyloid nucleation score (Sup35N fusion, yeast selection) (log enrichment); library NNK2; higher = more nucleation; inactive = no reads after selection
Procedure, shortened: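 Peptides of 20 random codons fused to Sup35N were expressed in psi-negative yeast, induced 24 hours with 100 μM copper sulfate, then grown 7 days at 30°C on medium lacking adenine and uracil. Input and output plasmid inserts were Illumina-sequenced. Nucleation score is the DiMSum log enrichment of output over input reads, centred on the mode score of non-aggregating sequences, excluding sequences with under 100 input reads. Random libraries had three technical output replicates.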

| Substance | amyloid nucleation score |
| --- | --- |
| TWSEWSTCRMGATRSH | 0.301 ± 0.27 |
| TWTRLALFMLIPSG | 0.464 ± 0.35 |
| TWVNYIIRKVRLVTIRLYVY | -0.011 ± 0.65 |
| TYALVTRLFCFLVSEHWVTL | -0.047 ± 0.26 |
| TYCFLGFQNIPSMLNPMNFG | 2.98 ± 0.046 |
| TYDYMKRDIMFTWLKRERKA | 1.04 ± 0.33 |
| TYFLGPLVSNSLRYY | 4.027 ± 0.04 |
| TYGLWRFGTRGKDEFKSPNR | 6.16 ± 0.058 |
| TYGWSLFERKLNPRGCWFPN | -0.082 ± 0.63 |
| TYIPGLVRTSLCGVA | -0.245 ± 0.35 |
| TYMWTSLEST | inactive |
| TYSLICQSTTKRFWVWKATL | -0.619 ± 1 |
| TYSLKFGSVVGRNYNLGY | 2.08 ± 0.1 |
| TYSTLFDFRMI | 0.099 ± 0.31 |
| TYTYSSCRIARRS | -0.559 ± 0.26 |
| TYYVYEVGVS | -0.203 ± 0.41 |
| VACIFCLSSPHPC | 6.48 ± 0.084 |
| VALHWNWDLFLYVRYFFDHT | inactive |
| VAMSCGRSYLKCLMACGLHM | -0.053 ± 1 |
| VANRIMLGSLGMGFVVGSSM | -0.033 ± 0.43 |
| VARVY | -0.625 ± 0.36 |
| VASGDSVLPKDIVFFSSIQG | -0.653 ± 0.29 |
| VATAAEWVQAGLE | 2.32 ± 0.11 |
| VATNCINMGS | -0.197 ± 0.79 |
| VAVTLNFLIGVIGCRGILMG | 5.482 ± 0.043 |

| Substance | amyloid nucleation score |
| --- | --- |
| VAWVYSVLKCVSGLVG | -0.013 ± 0.4 |
| VAYLNLCLS | inactive |
| VCCFLLHQN | 6.88 ± 0.083 |
| VCFML | 0.94 ± 0.52 |
| VCGFRAIVVVDPYWQPGKMA | 2.42 ± 0.13 |
| VCIVDLVS | -0.203 ± 0.65 |
| VCNRPI | -0.78 ± 0.26 |
| VCRPDINVAHHPGFNFIVRS | inactive |
| VCSPIG | 0.063 ± 0.45 |
| VCYLLFFKRSSYKFSINHYC | inactive |
| VDCCSFSLWVVW | 3.98 ± 0.093 |
| VDETNAKL | 0.785 ± 0.3 |
| VDFFVFHLVTDSIMSYAHCM | 0.633 ± 0.66 |
| VDFRFMMHPSEEWMSNHLPR | 1.14 ± 0.24 |
| VDNYEQLTMKNEHETNT | -0.902 ± 0.45 |
| VDRIESVSYLYSHDYNESGP | -0.212 ± 0.53 |
| VDSPKREVNMCVWLLRRKQR | 0.21 ± 0.34 |
| VDYASGGARGFGMVLRAFLE | 0.132 ± 0.42 |
| VDYGQRAPTCITSHYHLNRC | 0.227 ± 1.1 |
| VDYTVFGGPTQRIGER | 0.073 ± 0.3 |
| VELSHFCTGRNSYSRRWISM | 0.422 ± 0.65 |
| VEVKNRYRVRKLLCGLLRIR | 0.799 ± 0.74 |
| VEWKRRNRVRVSRCELWFCF | 3.93 ± 0.087 |
| VFARWFYAADGYIARLHVHT | 0.133 ± 0.5 |
| VFAWLIVGIWACLFGARIFW | -0.291 ± 0.4 |

| Substance | amyloid nucleation score |
| --- | --- |
| VFFRLMKPNFGLP | 0.199 ± 1.1 |
| VFFSESERYSGVKLGAVEDT | 0.189 ± 0.49 |
| VFGSYCGSVPRAAKFAMT | inactive |
| VFIFLGLPLFPMITSIDLGY | 2.28 ± 0.13 |
| VFMCVGFLLYHMNSELGPRG | 2.88 ± 0.087 |
| VFNFVSFRFDDTVD | 6.987 ± 0.04 |
| VFRDLSIERFIRSYVNCDRG | inactive |
| VFSDWMNCRYLMLRVCRVPR | 0.629 ± 0.56 |
| VFTILSCWGPYRCVVTRALL | inactive |
| VFTISESHLCWQYHLQEFT | 4.76 ± 0.068 |
| VFVMKMPWQSLISNLIFTSM | 1.23 ± 0.2 |
| VFVWECGAIQSLLISYMNDM | -0.784 ± 0.53 |
| VGDVGMFFLSR | -0.668 ± 0.34 |
| VGFLYACYFRGTAVNETGYT | 1.15 ± 0.13 |
| VGGQNGCCWVVLNTSVPNSS | 6.645 ± 0.052 |
| VGGWGWGHCPQRRQHVSLPV | 0.825 ± 0.53 |
| VGLCSPWKHALFD | 3.33 ± 0.073 |
| VGNIGSSTC | -0.159 ± 0.45 |
| VGRIEGHFYRSDCRQTYLYQ | -0.785 ± 0.74 |
| VGRTVMKWACIVE | 4.878 ± 0.034 |
| VGSFGLMKTYGVYCDNLLGR | inactive |
| VGTAKYYFKGCLGTPRSNNL | inactive |
| VHAVGHNSIGTRIRWVNGAA | 0.504 ± 0.33 |
| VHCDYVIELGPGWWVRNWGS | 0.42 ± 0.54 |
| VHGDMVFVCLTRCYRMF | 5.37 ± 0.065 |

| Substance | amyloid nucleation score |
| --- | --- |
| VHKYSSGMDYRSVVNLETLG | 0.192 ± 1 |
| VHLSLGGNIGLDGLQMVGVL | inactive |
| VHMVPHCATW | 1.01 ± 0.38 |
| VHNQGFLFL | -0.07 ± 0.76 |
| VHSSVRQMSDY | 0.168 ± 0.4 |
| VHVYVGQKWSGGVLSLACYK | 1.09 ± 0.35 |
| VHYMHLSRLLKLHAEPLAFW | -0.02 ± 0.55 |
| VICLTIYRIDECLVCLLYVA | -0.405 ± 0.33 |
| VIHAFIMYSFGTKDV | 0.885 ± 0.32 |
| VIKGIEGVHGEKHVVYKVIC | 4.19 ± 0.065 |
| VINLRLLLIVLDGDIDYWCV | inactive |
| VIPYISYLDIGTLVLLAFID | -0.373 ± 1 |
| VIRSSFFFSLELSSREEFGY | -0.817 ± 0.74 |
| VISEGRHKSFSL | -0.105 ± 1.1 |
| VITEADRLFHWIWKESLGEE | 4.858 ± 0.035 |
| VIVLIVLPEYAGVYSHWCWD | 0.772 ± 0.81 |
| VKFCIMSGSTKTINNYSQAR | 5.57 ± 0.09 |
| VKFFFTILVPFLIFVS | inactive |
| VKFTVFTQGQALIVPSGLL | 5.32 ± 0.084 |
| VKGVLPVLWMGFNKQHFINH | 0.602 ± 0.81 |
| VKIWLCATCFMGEDVQETAQ | 7.055 ± 0.044 |
| VKLPITGIERLLEARQGDQW | 0.757 ± 0.39 |
| VKPMMTFIATYGRYNHQFLS | 0.861 ± 0.43 |
| VKREVLP | 0.117 ± 0.37 |
| VKTQSTVWSYR | 0.409 ± 0.28 |

| Substance | amyloid nucleation score |
| --- | --- |
| VKVHSIESGGLRPWCVGASV | 0.747 ± 0.3 |
| VKVLSLVFTGMVPMQYSRYA | 11.31 ± 0.049 |
| VKVQKINGGCVGFDLTWLCN | 8.863 ± 0.034 |
| VKYYQGIGVWSKVWIMFD | 0.7 ± 0.42 |
| VLALYYINSATLILFLIFKS | -1.16 ± 1.1 |
| VLATSFNFELGSGRTDLCRV | -0.805 ± 0.46 |
| VLAVSLIYALTP | inactive |
| VLAYMQHFYRCQLCSVYVWG | 4.23 ± 0.11 |
| VLCLNFHGANVGWDLTTVYT | 1.02 ± 0.17 |
| VLEDNALVRYKDRGSSGWTV | 3.15 ± 0.059 |
| VLFCMSYKSARLEL | 6.08 ± 0.07 |
| VLFEFTC | 4.33 ± 0.05 |
| VLFSRFDSVWHVAIAVSARV | 0.671 ± 0.42 |
| VLGLKKSADYKS | -0.556 ± 0.74 |
| VLISVIWLRGRKLSVGWKKD | 0.593 ± 0.53 |
| VLLSGLY | inactive |
| VLMINWMKVADFHEYFFICH | 6.3 ± 0.066 |
| VLNVNDFPNYGRRSCSTNSF | 3.18 ± 0.17 |
| VLRSTLDD | inactive |
| VLSCRSLSAQFSMPAFMEQS | 0.972 ± 0.18 |
| VLSDRKVY | 0.117 ± 0.79 |
| VLSHYIRLHKSLDLSYSNGV | -0.817 ± 0.61 |
| VLSWGFKGNAKPHHTDSLKG | 0.603 ± 0.22 |
| VLSYSVFTLRLATKIVP | -0.337 ± 1.1 |
| VLTMHPVRMFLDFFDDMMCY | inactive |

| Substance | amyloid nucleation score |
| --- | --- |
| VLVCSANRLCNEPTIDRVLG | 4.14 ± 0.057 |
| VLVIGSIVYVCLSKDCCFNV | 9.543 ± 0.04 |
| VLVIVVTLRKWMTLNRRGVP | 0.155 ± 0.53 |
| VLVKL | -1.17 ± 0.48 |
| VLWHTGDMDMRVNRANELVS | 4.52 ± 0.046 |
| VLWMVQMIRPRSS | 7.02 ± 0.074 |
| VMATLHSLFVYRVDTFMFVE | 0.358 ± 0.51 |
| VMGDWAFSGFSNSNFS | -0.931 ± 0.44 |
| VMGIEMIFVVGLWQLEDVKG | 0.747 ± 0.23 |
| VMLHPSNSLALNCLT | -0.297 ± 0.28 |
| VMWDNVLSVLLVSGRVAFPM | 2.87 ± 0.099 |
| VNCPRIMGSIGRLFVVYTQM | 8.319 ± 0.06 |
| VNCYTIWVGNSSRSVHSINA | 5.27 ± 0.083 |
| VNFGI | -0.948 ± 0.64 |
| VNFPLVSGG | 0.114 ± 0.38 |
| VNFVLGVL | 0.086 ± 0.19 |
| VNIVVILFIVADIKWRRF | 3.15 ± 0.12 |
| VNLLFVVLCTMGSVSFKNSC | 7.768 ± 0.036 |
| VNLMVYASVIIGCAVARS | 7.06 ± 0.045 |
| VNMLEQKGRMSDETPCTATP | 0.107 ± 0.79 |
| VNPCVWIRIYWRS | -0.014 ± 0.65 |
| VNQLRHYDLGINAHGQCRRL | 0.54 ± 0.8 |
| VNSNEVFIYPFTNLNFMML | 5.17 ± 0.087 |
| VNVIFHEYNVDAG | 4.02 ± 0.12 |
| VNYHLFVYAQWIVRKGFILL | -0.78 ± 0.44 |

| Substance | amyloid nucleation score |
| --- | --- |
| VNYYSFLLVFPGLQLTREIN | 6.38 ± 0.09 |
| VPFGQTAVLSEGDSEVGGMK | -0.228 ± 1.1 |
| VPGSMLLCIVQALKHANMAG | 0.417 ± 0.24 |
| VPHHPRVGSLPIHNSAAPYM | -0.683 ± 0.45 |
| VPICLSS | inactive |
| VPSFYYRIVTYKRAE | 2.74 ± 0.094 |
| VQKTIVKLLAWLCFRGTAYC | 0.486 ± 0.8 |
| VQNMIDKVMKYWTYSICSTV | 1.27 ± 0.36 |
| VRCKVCPGRAYFDMRAPMQS | -0.512 ± 0.63 |
| VRCRMFMYVMSDLSFMS | 3.6 ± 0.047 |
| VRDNHNRSGQVRGGADLN | 0.822 ± 0.34 |
| VRFEELTEY | -0.171 ± 1 |
| VRFHVWDKGHRMI | 1.47 ± 0.18 |
| VRFWSLMCYACFSQSGSRVR | 3.91 ± 0.084 |
| VRFYDLFFKVGRQVYCLNNS | -0.694 ± 0.55 |
| VRGAVSLL | -0.64 ± 0.29 |
| VRGRVAHRRMGSTFVISAES | 0.266 ± 0.74 |
| VRLEPSHRVCRRVRLTSILR | inactive |
| VRPRGTKRCFFGRNHWRSSF | 0.428 ± 0.66 |
| VRSMTELGPRLVAGK | 1.45 ± 0.33 |
